# Measurements from patent US7524668B1, “Crystal of human beta secretase having monoclinic space group symmetry C2 and methods for crystallization thereof” (Elan Pharmaceuticals, Inc., priority 2001, dated 2009).
# B1: HIV-1 protease treated beta secretase: CHO cell expressed recombinant human beta secretase proteolytically cleaved with HIV protease at the F39-V40 bond (SEQ ID NO:5) (protein)
# chain: VEMVDNLRGKSGQGYYVEMTVGSPPQTLNILVDTGSSNFAVGAAPHPFLHRYYQRQLSSTYRDLRKGVYVPYTQGKWEGELGTDLVSIPHGPNVTVRANIAAITESDKFFINGSNWEGILGLAYAEIARPDDSLEPFFDSLVKQTHVPNLFSLQLCGAGFPLNQSEVLASVGGSMIIGGIDHSLYTGSLWYTPIRREWYYEVIIVRVEINGQDLKMDCKEYNYDKSIVDSGTTNLRLPKKVFEAAVKSIKAASSTEKFPDGFWLGEQLVCWQAGTTPWNIFPVISLYLMGEVTNQSFRITILPQQYLRPVEDVATSQDDCYKFAISQSSTGTVMGAVIMEGFYVVFDRARKRIGFAVSACHVHDEFRTAAVEGPFVTLDMEDCGYNIPQTDESHHHHHH
# Target: T1, beta secretase (Homo sapiens, UniProt P56817)
# T1 construct: a homogeneous preparation of beta secretase with V^40 as an N-terminus could be made; made in house; host or cells: CHO-K1 cells; secreted, purified, then cleaved in vitro with HIV-1 protease
# Experiment: beta secretase activity assay by HPLC analysis of the products
# Type: biochemical
# Conditions: CHO cell derived human beta secretase cleaved at F39-V40 by HIV-1 protease, compared with unprocessed/non-treated enzyme
# Protocol: Cleavage of Beta Secretase by HIV Protease. It was reasoned that a homogeneous preparation of beta secretase with V^40 as an N-terminus could be made if conditions could be found to bring the cleavage to completion. The optimal conditions for cleavage were determined by examining the N-terminal sequence of beta secretase after incubation with HIV-1 protease in various conditions. These included a pH range of 4-7, urea concentrations of 0.5-3.0 M, and time increments of 15 minutes, up to 2 hours incubation at 37° C. […] The processed enzyme was separated from the other components of the reaction mixture by using an affinity column based on the synthetic peptide shown in FIG. 2 and dialysis.
# Purified HIV-1 protease treated (and non-treated) beta secretase were assayed for activity by HPLC analysis of the products.
molecule,measurement,value
B1,more enzymatic activity than non-treated beta secretase,10-20%
